Results on one substance are retold here after paper doi:10.1101/2022.08.03.502613.

This experiment concerns the target γ-tubulin ring complex (γ-TuRC) purified using GCP3-GFP-SII (human (endogenous in HEK293T)) (UniProt Q96CW5). Nature of the experiment: single-molecule colocalisation by TIRF microscopy.

“mCherry-CDK5RAP2 (full-length, human) (from UniProt Q96SN8 1-1893) (natural protein)” gave a % of CDK5RAP2-positive dots colocalizing with γ-TuRCs, with tubulin of 13% and a % of CDK5RAP2-positive dots colocalizing with γ-TuRCs, without tubulin of 41%.
